Source: patent US20240132580A1 (DOTBIO PTE, published 2024)
Residue numbers refer to the chain shown, from its start.

T1: Human VEGF-121 (Acro Biosystems) (human, UniProt P15692 207-395)
T1 construct: Bought protein; also called human VEGFA
T1 sequence: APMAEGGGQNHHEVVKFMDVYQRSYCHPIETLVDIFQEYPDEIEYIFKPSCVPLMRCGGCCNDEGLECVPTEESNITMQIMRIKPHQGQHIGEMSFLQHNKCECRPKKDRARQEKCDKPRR

T2: Biotinylated murine VEGF-164 (Acro Biosystem) (mouse, UniProt Q00731-2 27-190, biotinylated (site not stated))
T2 construct: Bought protein; also called Mouse VEGF164; mouse VEGFA
T2 sequence (looked up): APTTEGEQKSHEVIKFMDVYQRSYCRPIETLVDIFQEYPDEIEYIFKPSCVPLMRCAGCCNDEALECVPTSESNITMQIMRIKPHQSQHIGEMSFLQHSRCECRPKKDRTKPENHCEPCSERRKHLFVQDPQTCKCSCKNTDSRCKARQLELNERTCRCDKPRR

B1: 16A2.1x2 (VHH)
chain: SEVQLVESGGGLVQPGGSLRLSCAISGFALAETDIDWVRQAPGKGLEWVARIFSSGGNTDYADSVKGRFTISADTSKNTVYLQMNSLRAEDTAVYYCGRSDSIAYNVILPNSTYTARDYRGQGTLVTVSSGGGGSGGGGSGGGGSGGGGSGGGGSGGGGSGGGGSEVQLVESGGGLVQPGGSLRLSCAISGFALAETDIDWVRQAPGKGLEWVARIFSSGGNTDYADSVKGRFTISADTSKNTVYLQMNSLRAEDTAVYYCGRSDSIAYNVILPNSTYTARDYRGQGTLVTVSSHHHHHH
notes: Tandem of two 16A2.1 VH domains in one chain; 'produced in the same way' as the single clones (E. coli, ATG codon 5', 3' hexahistidine tag); also called bivalent molecule 16A2.1x2; bivalent 16A2.1x2 molecule
B2: 13A6 (VHH)
VHH: EVQLVESGGGLVQPGGSLRLSCAISGFSLAATDIDWVRQAPGKGLEWVARIFPSAGSTDYADSVKGRFTISADTSKNTVYLQMNSLRAEDTAVYYCGRSDSYSYNVFLHNPTYTALDYRGQGTLVTVSS
notes: Autonomous humanised VH domain (DotBody); also called anti-VEGF DotBody 13A6; clone 13A6
B3: 16A2.1 (VHH)
VHH: EVQLVESGGGLVQPGGSLRLSCAISGFALAETDIDWVRQAPGKGLEWVARIFSSGGNTDYADSVKGRFTISADTSKNTVYLQMNSLRAEDTAVYYCGRSDSIAYNVILPNSTYTARDYRGQGTLVTVSS
notes: E. coli, ATG codon 5' (possible initiator Met), 3' hexahistidine tag; also called anti-VEGF DotBody 16A2.1; clone 16A2.1
B4: 16A6.1 (VHH)
VHH: B2 VHH with S54F, A55S, A61T, N110D, T112A
notes: E. coli, ATG codon 5' (possible initiator Met), 3' hexahistidine tag; also called clone 16A6.1
B5: 21A1.1 (VHH)
VHH: EVQLVESGGGLVQPGGSLRLSCAISGFALATTDIDWVRQAPGKGLEWVARIFNPSDFTDYADSVKGRFTISADTSKNTVYLQMNSLRAEDTAVYYCGRPAVYGYNIFLDSPTYDASQYRGQGTLVTVSS
notes: Autonomous humanised VH domain (DotBody), from the 16C2.1-based library with heat challenge; E. coli, ATG codon 5' (possible initiator Met), 3' hexahistidine tag; also called DotBody 21A1.1
B6: 21E6.1 (VHH)
VHH: EVQLVESGGGLVQPGGSLRLSCAISGFTLAATDIDWVRQAPGKGLEWVARIFTPTGFSDYADSVKGRFTISADTSKNTVYLQMNSLRAEDTAVYYCGIPELYAYNIFMDIPAYNDVYYRGQGTLVTVSS
notes: Autonomous humanised VH domain (DotBody), from the 16C2.1-based library with heat challenge; E. coli, ATG codon 5' (possible initiator Met), 3' hexahistidine tag; also called DotBody 21E6.1
B7: 21A8.1 (VHH)
VHH: EVQLVESGGGLVQPGGSLRLSCAISGFSVDATDIDWVRQAPGKGLEWVARIFSPSGFTDYADSVKGRFTISADTSKNTVYLQMNSLRAEDTAVYYCDRPEFYAYNIFHDPRTVPAGNYRGQGTLVTVSS
notes: Autonomous humanised VH domain (DotBody), from the 16C2.1-based library with heat challenge; E. coli, ATG codon 5' (possible initiator Met), 3' hexahistidine tag; also called DotBody 21A8.1
B8: 23D5.1 (VHH)
VHH: EVQLVESGGGLVQPGGSLRLSCAISGFDLATTDIDWVRQAPGKGLEWVARIFRPSDFTDYADSVKGRFTISADTSKNTVYLQMNSLRAEDTAVYYCVRPDSYAYNILFVTRTFNALHYRGQGTLVTVSS
notes: Autonomous humanised VH domain (DotBody), from the 16C2.1-based library without heat challenge; E. coli, ATG codon 5' (possible initiator Met), 3' hexahistidine tag; also called DotBody 23D5.1
B9: 20A3.1 (VHH)
VHH: EVQLVESGGGLVQPGGSLRLSCAISGFSLADTDIDWVRQAPGKGLEWVARIFSSSGSTYYADSVKGRFTISADTSKNTVYLQMNSLRAEDTAVYYCDRADSVGYNVIFPGSTYSRSGYRGQGTLVTVSS
notes: Autonomous humanised VH domain (DotBody), from the 16A2.1-based library with heat challenge; E. coli, ATG codon 5' (possible initiator Met), 3' hexahistidine tag; also called DotBody 20A3.1
B10: 21D9.1 (VHH)
VHH: EVQLVESGGGLVQPGGSLRLSCAISGFSLGATDIDWVRQAPGKGLEWVARIFSPSDFTDYADSVKGRFTISADTSKNTVYLQMNSLRAEDTAVYYCSRPDTYAYNIFPHTASHGAFNYRGQGTLVTVSS
notes: Autonomous humanised VH domain (DotBody), from the 16C2.1-based library with heat challenge; E. coli, ATG codon 5' (possible initiator Met), 3' hexahistidine tag; also called DotBody 21D9.1
B11: 20A2.1 (VHH)
VHH: B3 VHH with A28P, E31D, G55Y, N57S, V106I, N110A, T114S, A115S
notes: Autonomous humanised VH domain (DotBody), from the 16A2.1-based library with heat challenge; E. coli, ATG codon 5' (possible initiator Met), 3' hexahistidine tag; also called DotBody 20A2.1

Target: T3, Biotinylated human VEGF-165 (Acro Biosystem) (human, UniProt P15692 207-395, biotinylated (site not stated))
T3 construct: Bought protein; also called human VEGFA
Test: BLI, biotinylated antigen on streptavidin tips, 600 sec dissociation, 1:1 global fit
Procedure: (§1) Binding characterization was performed using BLI (Satorius) at RT with a 1000 rpm flow-rate. Biotinylated human VEGF-165 (Acro Biosystem) was immobilized onto Streptavidin-coated tips at a concentration of 3 μg/mL for 60 sec in BLI buffer (0.1% BSA and 0.01% Tween-20 in PBS). After a 30 sec baseline, anti-VEGFA DotBodies were associated at 8 different concentrations, including a blank reference, in BLI buffer for 60 sec, followed by a 400 sec dissociation in BLI buffer. The background buffer signal was subtracted using the 0 nM concentration reference, and the kinetics of binding were calculated using a global fit following a 1:1 binding model, using BLI Analysis Software. The bivalent molecule 16A2.1x2 was also characterized as described here, but with a 600 sec dissociation. To characterize the binding of all the clones against murine VEGFA, the same procedure was employed, but the immobilized target was replaced with biotinylated murine VEGF-164 (Acro Biosystem).

Kd | koff | kon | Binder
0.301 nM | 0.000128 s⁻¹ | 426000 M⁻¹ s⁻¹ | B1

Target: T1, Human VEGF-121 (Acro Biosystems)
Test: competitive ELISA, inhibition of VEGF-121 (0.5 nM) binding to coated VEGFR1 (FIG. 4)
Procedure: (§2) To perform the competitive ELISA, the VEGFR1 was immobilized at a concentration of 2 μg/mL onto a Maxisorp 96-well plate (Thermo Scientific) overnight at 4° C., washed three times with PBS and blocked for 1 h at RT with ELISA Block Buffer (EBB: 0.2% BSA in PBST). […] The samples were incubated for 2 h at RT, and 50 μL transferred onto the VEGFR1-coated plate. After 2 h incubation, the plate was washed 3 times with PBST. 50 μL of streptavidin-HRP conjugate (Thermo Scientific) was added at a 1:5,000 dilution in EBB, and incubated for 1 h at RT. The plate was washed 5 times with PBST, and developed with 50 μL 3,3′,5,5′-Tetramethylbenzidine (TMB) substrate (GeneTex). After 5-15 min, the reactions were stopped by adding 50 μL of 2M H₂SO₄, and signal was measured at an absorbance of 450 nm.

IC50 | Binder
5900 nM | B2
12.2 nM | B3
41.4 nM | B4

Target: T1, Human VEGF-121 (Acro Biosystems)
Test: competitive ELISA, inhibition of VEGF-121 (0.5 nM) binding to coated VEGFR1 (FIG. 5)
Procedure: as §2

IC50 | Binder
0.9 nM | B5
7.5 nM | B6
1.8 nM | B7
1.4 nM | B8
0.9 nM | B9
3 nM | B3
1 nM | B10
1.6 nM | B11

Target: T2, Biotinylated murine VEGF-164 (Acro …)
Test: BLI, biotinylated antigen on streptavidin tips, 1:1 global fit
Procedure: as §1

Kd | koff | kon | Binder
13.8 nM | 0.00231 s⁻¹ | 167000 M⁻¹ s⁻¹ | B5
14.2 nM | 0.00117 s⁻¹ | 82800 M⁻¹ s⁻¹ | B6
46.1 nM | 0.00292 s⁻¹ | 63400 M⁻¹ s⁻¹ | B7
8.34 nM | 0.00169 s⁻¹ | 205000 M⁻¹ s⁻¹ | B8
8.7 nM | 0.000889 s⁻¹ | 102000 M⁻¹ s⁻¹ | B9
248 nM | 0.0104 s⁻¹ | 41900 M⁻¹ s⁻¹ | B2
16.6 nM | 0.00193 s⁻¹ | 116000 M⁻¹ s⁻¹ | B3
18.4 nM | 0.00225 s⁻¹ | 122000 M⁻¹ s⁻¹ | B4
41.7 nM | 0.00243 s⁻¹ | 58000 M⁻¹ s⁻¹ | B10
10.2 nM | 0.00135 s⁻¹ | 132000 M⁻¹ s⁻¹ | B11

Target: T3, Biotinylated human VEGF-165 (Acro …)
Test: as above
Procedure: as §1

Kd | koff | kon | Binder
11.3 nM | 0.00103 s⁻¹ | 91500 M⁻¹ s⁻¹ | B5
6.3 nM | 0.000442 s⁻¹ | 69600 M⁻¹ s⁻¹ | B6
20 nM | 0.00118 s⁻¹ | 58000 M⁻¹ s⁻¹ | B7
2.8 nM | 0.000802 s⁻¹ | 286000 M⁻¹ s⁻¹ | B8
2.78 nM | 0.000725 s⁻¹ | 260000 M⁻¹ s⁻¹ | B9
38.9 nM | 0.00475 s⁻¹ | 122000 M⁻¹ s⁻¹ | B2
2.5 nM | 0.000986 s⁻¹ | 394000 M⁻¹ s⁻¹ | B3
14.7 nM | 0.00136 s⁻¹ | 92400 M⁻¹ s⁻¹ | B4
20.5 nM | 0.00099 s⁻¹ | 48200 M⁻¹ s⁻¹ | B10
5.54 nM | 0.00055 s⁻¹ | 97700 M⁻¹ s⁻¹ | B11

Target: T3, Biotinylated human VEGF-165 (Acro …)
Test: not stated at this place (BLI in Example 10)
Procedure: as §1

Kd | Binder
< 5 nM | B3
